Data from patent US20170362329A1 (PELICAN THERAPEUTICS, published 2017).
Read-outs that look alike come from different tables or passages of the source.

Key:
[1] = molecular target: human TNFRSF25 (expressed on P815 cells) (human) (UniProt Q93038); assay: cell-based or functional assay
[2] = molecular target: human TNFRSF25 (expressed on P815 cells) (human), Q93038; assay: cell-based or functional assay
WBP330.hProl.ECD.hF = molecular target: T1, WBP330.hProl.ECD.hF (human, UniProt Q93038 25-199); assay: SPR (ProteOn), TNFRSF25 ECD fusion as ligand, antibody as analyte, bivalent analyte model
T1 construct: extracellular domain; also called human TNFRSF25 (SPR ligand)
T1 sequence (looked up): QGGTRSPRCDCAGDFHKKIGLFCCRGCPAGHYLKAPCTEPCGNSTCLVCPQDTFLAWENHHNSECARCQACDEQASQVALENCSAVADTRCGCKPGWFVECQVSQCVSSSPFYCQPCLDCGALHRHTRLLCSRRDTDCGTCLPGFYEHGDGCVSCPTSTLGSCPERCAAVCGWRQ
Procedure: Affinity of the indicated humanized TNFRSF25 antibodies was determined by surface plasmon resonance (SPR) using the ProteOn method (FIG. 7 and TABLE 3).

[3] = molecular target: human TNFRSF25 (expressed on P815 cells) (human) (UniProt Q93038); assay: flow cytometry on P815 cells expressing human TNFRSF25
[4] = molecular target: human TNFRSF25 (expressed on P815 cells) (human) (UniProt Q93038); assay: cell-based or functional assay; remark: listed apart in the source
[5] = molecular target: human TNFRSF25 (expressed on P815 cells) (human) (UniProt Q93038); assay: flow cytometry on P815 cells expressing human TNFRSF25 (mean fluorescence intensity)
human TNFRSF25-Fc = molecular target: T2, human TNFRSF25-Fc (human, UniProt Q93038 25-199, limits assumed); assay: ELISA, binding of PTX-25 to human TNFRSF25-Fc, OD 450 nm
T2 construct: also called human TNFRSF25 fusion protein; not shown: Fc part
T2 sequence (looked up): T1 sequence (looked up)

Molecule: hTL1A-hFc chimera (from UniProt O95150 72-251) (Fc fusion)
- EC50 of induced caspase activity [1]: 0.283 mg/L

B1: WBP330.cAb1.hIgG1 (35783) (antibody, V domains shown)
VH: EVQLVESGGGLSQPGNSLQLSCEASGFTFSNHDLNWVRQAPGKGLEWVAYISSASGLISYADAVRGRFTISRDNAKNSLFLQMNNLKSEDTAMYYCARDPPYSGLYALDFWGQGTQVTVSS
VL: QPVLTQSPSASASLSGSVKLTCTLSSELSSYTIVWYQQRPDKAPKYVMYLKSDGSHSKGDGIPDRFSGSSSGAHRYLSISNVQSEDDATYFCGAGYTLAGQYGWVFGSGTKVTVL
notes: also called cAb1 (35783); chimeric antibody
- EC50 (nM), caspase activation in P815 cells expressing human TNFRSF25 [2]: 71.4 nM
- EC50 of induced caspase activity [2]: 0.121 mg/L
- Kd (WBP330.hProl.ECD.hF): 0.0581 µM
- koff (WBP330.hProl.ECD.hF): 0.00576 s⁻¹
- kon (WBP330.hProl.ECD.hF): 99000 M⁻¹ s⁻¹

B2: WBP330BMK1 (antibody, V domains shown)
VH: B1 VH
VL: B1 VL
- Kd [3]: 0.0735 µM
- Kd (WBP330.hProl.ECD.hF): 0.254 µM
- koff (WBP330.hProl.ECD.hF): 0.0252 s⁻¹
- kon (WBP330.hProl.ECD.hF): 99000 M⁻¹ s⁻¹
- EC50 (nM), caspase activation in P815 cells expressing human TNFRSF25 [4]: 19.6 nM
- EC50 of induced caspase activity [4]: 0.0192 mg/L
- Bmax [5]: 246

B3: PTX-25 (human TNFRSF25-specific monoclonal antibody, pre-humanized parental) (antibody, V domains shown)
VH: B1 VH
VL: B1 VL
notes: also called Pre-humanized Parental PTX-25; human TNFRSF25-specific mAb
- EC50 (read off the curve) (human TNFRSF25-Fc): ~0.04 mg/L
- IC50 (human TNFRSF25-Fc): 0.00517 µM
